Consider four molecules from US20210163923A1 (IONTAS, published 2021).

Experiment [1] addresses T1, unconjugated streptavidin-PE (UniProt P22629 37-163, limits assumed, phycoerythrin conjugate).
T1 construct: Control staining reagent; also called streptavidin-PE alone
The experiment can be described thus: flow cytometry of HEK293 cells 24 hours after transfection, stained with streptavidin-PE alone [panel Streptavidin PE].

Another experiment has as its target T2, PD-1 (UniProt Q15116 25-167, biotinylated in the MACS experiments).
T2 construct: The catalogue number points to a human PD-1 reagent; also called biotinylated PD1 (PD1-H82E4, AcroBiosystems); PD-1-biotin
The experiment can be described thus: surface plasmon resonance (SPR). In general terms: In SPR one partner is held on a chip, and binding of the other changes the refractive index at the surface.

Experiment [2] deals with T1, unconjugated streptavidin-PE. The experiment can be described thus: flow cytometry of HEK293 cells displaying the IgG, stained with streptavidin PE alone. Background: Flow cytometry measures light scatter and fluorescence of single cells or particles in a stream.

T1 sequence (P22629 37-163 limits assumed): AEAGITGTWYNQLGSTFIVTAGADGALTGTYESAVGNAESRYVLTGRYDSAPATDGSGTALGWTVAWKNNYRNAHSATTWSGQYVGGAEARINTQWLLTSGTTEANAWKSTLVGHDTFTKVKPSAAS
T2 sequence (Q15116 25-167 limits assumed): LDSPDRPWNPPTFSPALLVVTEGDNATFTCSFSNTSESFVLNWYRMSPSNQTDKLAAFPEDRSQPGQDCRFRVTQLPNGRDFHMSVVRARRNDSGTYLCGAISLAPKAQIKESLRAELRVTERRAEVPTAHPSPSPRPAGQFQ

B1: mono-specific anti-FIXa IgG (Emicizumab anti-FIXa VH with Emicizumab VL, pINT17-BSD-anti-FIXa) (antibody, V domains shown)
VH: QVQLVESGGGLVQPGGSLRLSCAASGFTFSYYDIQWVRQAPGKGLEWVSSISPSGQSTYYRREVKGRFTISRDNSKNTLYLQMNSLRAEDTAVYYCARRTGREYGGGWYFDYWGQGTLVTVSS
VL: DIQMTQSPSSLSASVGDRVTITCKASRNIERQLAWYQQKPGQAPELLIYQASRKESGVPDRFSGSRYGTDFTLTISSLQPEDIATYYCQQYSDPPLTFGGGTKVEIK
notes: also called mono-specific anti-FIXa arm in IgG format
Consider B1, for which the binding result in experiment [1] is listed as “no binding”.

B2: 337_1_C08 (antibody, V domains shown)
VH: EVQLVQSGAEVKRPGASVTVSCKASGYTFTNHGISWVRQAPGQGLEWMGWNSPYNGNTNYAQRFQGRVTMTTDTSTNTAYMELRTLTSDDTAMYYCARDRDYYDAGSYWGQGTLVTVSS
VL: SYELTQPPSVSVSPGQTARITCSGDSLPKQYAYWYQQKPGQAPVLVIYKDSERPSGIPERFSGSGSGTTVTLTISGVQAEDEADYYCQSADSDNAFVFGRGTKLTVL
notes: Anti-PD1 antibody identified by phage display; also called anti-PD1 antibody 337_1_C08; 337_C08
As a reminder, the Kd is the free concentration of one partner at which half of the binding sites on the other are occupied at equilibrium, for simple one-to-one binding. Read a high Kd as a looser complex. Molecule B2 showed an equilibrium dissociation constant (Kd) in the experiment with PD-1 of 74 nM.

B3: Ustekinumab (antibody, V domains shown)
VH: EVQLVQSGAEVKKPGESLKISCKGSGYSFTTYWLGWVRQMPGKGLDWIGIMSPVDSDIRYSPSFQGQVTMSVDKSITTAYLQWNSLKASDTAMYYCARRRPGQGYFDFWGQGTLVTVS
VL: DIQMTQSPSSLSASVGDRVTITCRASQGISSWLAWYQQKPEKAPKSLIYAASSLQSGVPSRFSGSGSGTDFTLTISSLQPEDFATYYCQQYNIYPYTFGQGTKLEIKR
notes: Anti-IL12 antibody; also called Ustenkinumab; Ustenikumab
Regarding B3, the binding result in experiment [2] is reported as “no binding”.

B4: Emicizumab (bi-specific, displayed from pINT17-Bi-CMV-Emicizumab) (bispecific antibody, human IgG4 S228P)
light: DIQMTQSPSSLSASVGDRVTITCKASRNIERQLAWYQQKPGQAPELLIYQASRKESGVPDRFSGSRYGTDFTLTISSLQPEDIATYYCQQYSDPPLTFGGGTKVEIKRTAAAPSVFIFPPSDEQLKSGTASVVCLLNNFYPREAKVQWKVDNALQSGNSQESVTEQDSKDSTYSLSSTLTLSKADYEKHKVYACEVTHQGLSSPVTKSFNRGEC
heavy 1: QVQLVESGGGLVQPGGSLRLSCAASGFTFSYYDIQWVRQAPGKGLEWVSSISPSGQSTYYRREVKGRFTISRDNSKNTLYLQMNSLRAEDTAVYYCARRTGREYGGGWYFDYWGQGTLVTVSSASTKGPSVFPLAPCSRSTSESTAALGCLVKDYFPEPVTVSWNSGALTSGVHTFPAVLQSSGLYSLSSVVTVPSSSLGTQTYTCNVDHKPSNTKVDKRVESKYGPPCPPCPAPEFLGGPSVFLFPPKPKDTLMISRTPEVTCVVVDVSQEDPEVQFNWYVDGVEVHNAKTKPREEQYNSTYRVVSVLTVLHQDWLNGKEYKCKVSNKGLPSSIEKTISKAKGQPREPQVYTLPPSQKEMTKNQVSLTCLVKGFYPSDIAVEWESNGQPENNYKTTPPVLDSDGSFFLYSKLTVDKSRWQEGNVFSCSVMHEALHNRYTQKSLSLSPEQKLISEEDLNAVGQDTQEVIVVPHSLPFKVVVISAILALVVLTIISLIILIMLWQKKPR
heavy 2: QVQLVQSGSELKKPGASVKVSCKASGYTFTDNNMDWVRQAPGQGLEWMGDINTRSGGSIYNEEFQDRVIMTVDKSTDTAYMELSSLRSEDTATYHCARRKSYGYYLDEWGEGTLVTVSSASTKGPSVFPLAPCSRSTSESTAALGCLVKDYFPEPVTVSWNSGALTSGVHTFPAVLQSSGLYSLSSVVTVPSSSLGTQTYTCNVDHKPSNTKVDKRVESKYGPPCPPCPAPEFLGGPSVFLFPPKPKDTLMISRTPEVTCVVVDVSQEDPEVQFNWYVDGVEVHNAKTKPREEQYNSTYRVVSVLTVLHQDWLNGKEYKCKVSNKGLPSSIEKTISKAKGQPREPQVYTLPPSQEEMTKNQVSLTCLVKGFYPSDIAVEWESNGQPENNYKTTPPVLDSDGSFFLYSKLTVDKSRWQEGNVFSCSVMHEALHNHYTQESLSLSPEQKLISEEDLNAVGQDTQEVIVVPHSLPFKVVVISAILALVVLTIISLIILIMLWQKKPR
notes: also called bi-specific Emicizumab; knobs-into-holes common light chain IgG
As to B4, the binding result in experiment [1] is recorded as “no binding”.
